Laboratory results: publication PMC6145688 (2018)

B1: SDC4-derived peptide VS52 (protein)
chain: VHPLVPLDNHIPERAGSGSQVPTEPKKLEENEVIPKRISPVEESEDVSNKVS

Target: Recombinant active autotaxin-β (ATXβ) (Homo sapiens (Human), UniProt Q13822)
Assay: SPR

Binding result, no binding:
B1, RETEVIDPQDLLEGRYFSGALPDDED (protein) [SDC4-derived peptide RD26], GALPDDEDVVGPGQESDDFEL (protein) [SDC4-derived peptide GL21]
